According to US20250163167A1 (SYNTHEKINE, published 2025):

T1: human IL-10 receptor (hIL-10R alpha and beta chains) on HEK-Blue IL-10 reporter cells (human, UniProt Q13651 22-578; Q08334 20-325)
T1 sequence 1: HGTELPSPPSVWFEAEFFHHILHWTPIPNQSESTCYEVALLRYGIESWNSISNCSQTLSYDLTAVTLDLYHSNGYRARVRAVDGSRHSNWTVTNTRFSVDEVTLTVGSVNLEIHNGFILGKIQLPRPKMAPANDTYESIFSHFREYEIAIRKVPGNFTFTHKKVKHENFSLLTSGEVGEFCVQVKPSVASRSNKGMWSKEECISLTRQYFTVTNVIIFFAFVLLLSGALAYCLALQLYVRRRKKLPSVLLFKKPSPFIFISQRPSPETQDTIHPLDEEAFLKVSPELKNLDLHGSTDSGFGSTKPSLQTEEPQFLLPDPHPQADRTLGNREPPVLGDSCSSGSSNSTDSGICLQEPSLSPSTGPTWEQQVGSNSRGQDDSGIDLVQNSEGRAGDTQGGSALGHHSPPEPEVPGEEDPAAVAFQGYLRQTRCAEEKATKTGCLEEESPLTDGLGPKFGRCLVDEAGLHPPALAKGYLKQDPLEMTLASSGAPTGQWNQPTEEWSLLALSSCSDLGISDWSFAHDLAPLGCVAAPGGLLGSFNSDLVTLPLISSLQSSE
T1 sequence 2: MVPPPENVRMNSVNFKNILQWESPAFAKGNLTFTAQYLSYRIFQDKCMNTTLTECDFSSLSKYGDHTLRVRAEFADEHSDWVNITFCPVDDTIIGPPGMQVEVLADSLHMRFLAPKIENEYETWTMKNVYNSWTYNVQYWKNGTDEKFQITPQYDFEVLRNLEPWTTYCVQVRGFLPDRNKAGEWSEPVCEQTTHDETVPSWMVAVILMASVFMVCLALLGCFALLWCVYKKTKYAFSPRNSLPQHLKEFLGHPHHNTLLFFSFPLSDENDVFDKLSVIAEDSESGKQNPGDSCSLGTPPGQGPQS


Target: T1, human IL-10 receptor (hIL-10R alpha and …)
Assay: cell-based or functional assay

Row | Binder | Abs 630 (25 nM) [Abs 630] | Abs 630 (100 nM) [Abs 630]
1 | IL10R binding molecule of SEQ ID NO: 274 (bispecific antibody) QVQLQESGGGSVQAGGSLRLSCAASGYTYSMYCMGWFRQAPGKEREGVAQINSDGSTSYADSVKGRFTISKDNAKNTLYLQMNSLKPEDTAMYYCAADSRVYGGSWYERLCGPYTYEYNYWGQGTQVTVSSGGGSQVQLQESGGGSVEAGGSLRLSCAASGYTHSSYCMGWFRQAPGKEREGVAAIDVDGSTTYADSVKGRFTISKDNAKNTLYLQMNSLKPEDTGMYYCAAEFADCSSNYFLPPGAVRYWGQGTQVTVSSASHHHHHH | 0.46 | 0.37
2 | IL10R binding molecule of SEQ ID NO: 268 (bispecific antibody) QVQLQESGGGSVQAGGSLRLSCAASRFTYSSYCMGWFRQAPGKEREGVASIDSDGSTSYTDSVKGRFTISKDNAKNTLYLQMNSLKPEDTAMYYCALDLMSTVVPGFCGFLLSAGMDYWGKGTQVTVSSGGGSQVQLQESGGGSVQAGGSLRLSCAASGYSYSSYCMGWFRQAPGKEREGVATIDSDGMTRYADSVKGRFTISKDNAKNTLYLQMNSLKPEDTAMYYCAAPLYDCDSGAVGRNPPYWGQGTQVTVSSASHHHHHH | 0.53 | 0.41
3 | IL10R binding molecule of SEQ ID NO: 265 (bispecific antibody) QVQLQESGGGSVQAGGSLRLSCAASRFTYSSYCMGWFRQAPGKEREGVASIDSDGSTSYTDSVKGRFTISKDNAKNTLYLQMNSLKPEDTAMYYCALDLMSTVVPGFCGFLLSAGMDYWGKGTQVTVSSGGGSQVQLQESGGGSVQAGGSLRLSCAASRYTYNSYCMGWFRQAPGKEREGVATIDSDGMTRYADSVKGRFTISKDNAKNTLYLQMNSLKPEDTAMYYCAADADCTIAAMTTNPLGQGTQVTVSSASHHHHHH | 0.54 | 0.46
4 | IL10R binding molecule of SEQ ID NO: 270 (bispecific antibody) QVQLQESGGGSVQAGGSLRLSCAASGYTYSMYCMGWFRQAPGKEREGVAQINSDGSTSYADSVKGRFTISKDNAKNTLYLQMNSLKPEDTAMYYCAADSRVYGGSWYERLCGPYTYEYNYWGQGTQVTVSSGGGSQVQLQESGGGSVQAGGSLRLSCAASGYTYSSGCMGWFRQAPGKEREAVAAINSDGSTSYADSVKGRFTISKDNAKNTLYLQMNSLKPEDTAMYYCAAEPYCSGGYPRWSVAEFGYWGQGTQVTVSSASHHHHHH | 1.41 | 0.73
5 | IL10R binding molecule of SEQ ID NO: 266 (bispecific antibody) QVQLQESGGGSVQAGGSLRLSCAASRFTYSSYCMGWFRQAPGKEREGVASIDSDGSTSYTDSVKGRFTISKDNAKNTLYLQMNSLKPEDTAMYYCALDLMSTVVPGFCGFLLSAGMDYWGKGTQVTVSSGGGSQVQLQESGGGSVQAGGSLRLSCTVSRYTASVNYMGWFRQAPGKEREGVATIFTGAGTTYYANSVKGRFTISRDNAKNTAYLQMNSLKPEDTAIYYCAVDFRGGLLYRPAYEYTYRGQGTQVTVSSASHHHHHH | 0.49 | 0.39
6 | IL10R binding molecule of SEQ ID NO: 351 (bispecific antibody) QVQLQESGGGSVQTGGSLRLSCAASGYTYLRGCMGWFRQAPGKEREGVAVMDVVGDRRSYIDSVKGRFTISRDNAANSVYLQMDNLKPEDTAMYYCTAGPNCVGWRSGLDYWGQGTQVTVSSGGGSQVQLQESGGGSVQAGGSLRLSCTVSGYTYSSNCMGWFRQAPGKEREGVATIYTGGGNTYYADSVKGRFTISQDNAKNTVYLQMNNLKPEDTAMYYCAAEPLSRVYGGSCPTPTFDYWGQGTQVTVSSASHHHHHH | 0.43 | 0.34
7 | IL10R binding molecule of SEQ ID NO: 256 (bispecific antibody) QVQLQESGGGSVQAGGSLRLSCAASRYLYSIDYMAWFRQSPGKEREPVAVIYTASGATFYPDSVKGRFTISQDNAKMTVYLQMNSLKSEDTAMYYCAAVRKTDSYLFDAQSFTYWGQGTQVTVSSGGGSQVQLQESGGGSVQAGGSLRLSCAASGYTYSSGCMGWFRQAPGKEREAVAAINSDGSTSYADSVKGRFTISKDNAKNTLYLQMNSLKPEDTAMYYCAAEPYCSGGYPRWSVAEFGYWGQGTQVTVSSASHHHHHH | 0.49 | 0.39
8 | IL10R binding molecule of SEQ ID NO: 264 (bispecific antibody) QVQLQESGGGSVQAGGSLRLSCAASRFTYSSYCMGWFRQAPGKEREGVASIDSDGSTSYTDSVKGRFTISKDNAKNTLYLQMNSLKPEDTAMYYCALDLMSTVVPGFCGFLLSAGMDYWGKGTQVTVSSGGGSQVQLQESGGGSVQAGGSLRLSCAASGYTYSSYCMGWFRQAPGKEREGVAHIDSDGSTSYADSVKGRFTISKDNAKNTLYLQMNSLKPEDTAMYYCAADPIPGPGYCDGGPNKYWGQGTQVTVSSASHHHHHH | 1.52 | 0.67
9 | IL10R binding molecule of SEQ ID NO: 353 (bispecific antibody) QVQLQESGGGSVQTGGSLRLSCAASGYTYLRGCMGWFRQAPGKEREGVAVMDVVGDRRSYIDSVKGRFTISRDNAANSVYLQMDNLKPEDTAMYYCTAGPNCVGWRSGLDYWGQGTQVTVSSGGGSQVQLQESGGGSVQAGGSLRLSCAASGYSNCSYDMTWYRQAPGKEREFVSAIHSDGSTRYADSVKGRFFISQDNAKNTVYLQMNSLKPEDTAMYYCKTDPLHCRAHGGSWYSVRANYWGQGTQVTVSSASHHHHHH | 0.56 | 0.61
10 | IL10R binding molecule of SEQ ID NO: 272 (bispecific antibody) QVQLQESGGGSVQAGGSLRLSCAASGYTYSMYCMGWFRQAPGKEREGVAQINSDGSTSYADSVKGRFTISKDNAKNTLYLQMNSLKPEDTAMYYCAADSRVYGGSWYERLCGPYTYEYNYWGQGTQVTVSSGGGSQVQLQESGGGSVQAGGSLRLSCAASRYTYNSYCMGWFRQAPGKEREGVATIDSDGMTRYADSVKGRFTISKDNAKNTLYLQMNSLKPEDTAMYYCAADADCTIAAMTTNPLGQGTQVTVSSASHHHHHH | 0.47 | 0.38
11 | IL10R binding molecule of SEQ ID NO: 269 (bispecific antibody) QVQLQESGGGSVQAGGSLRLSCAASRFTYSSYCMGWFRQAPGKEREGVASIDSDGSTSYTDSVKGRFTISKDNAKNTLYLQMNSLKPEDTAMYYCALDLMSTVVPGFCGFLLSAGMDYWGKGTQVTVSSGGGSQVQLQESGGGSVQTGGSLRLSCAASGYTYLRGCMGWFRQAPGKEREGVAVMDVVGDRRSYIDSVKGRFTISRDNAANSVYLQMDNLKPEDTAMYYCTAGPNCVGWRSGLDYWGQGTQVTVSSASHHHHHH | 0.46 | 0.37

Results, then the binder that gave them:

Row | Abs 630 (25 nM) [Abs 630] | Abs 630 (100 nM) [Abs 630] | Binder
12 | 1.93 | 1.65 | IL10R binding molecule of SEQ ID NO: 271 (bispecific antibody) QVQLQESGGGSVQAGGSLRLSCAASGYTYSMYCMGWFRQAPGKEREGVAQINSDGSTSYADSVKGRFTISKDNAKNTLYLQMNSLKPEDTAMYYCAADSRVYGGSWYERLCGPYTYEYNYWGQGTQVTVSSGGGSQVQLQESGGGSVQAGGSLRLSCAASGYTYSSYCMGWFRQAPGKEREGVAHIDSDGSTSYADSVKGRFTISKDNAKNTLYLQMNSLKPEDTAMYYCAADPIPGPGYCDGGPNKYWGQGTQVTVSSASHHHHHH
13 | 0.75 | 0.53 | IL10R binding molecule of SEQ ID NO: 267 (bispecific antibody) QVQLQESGGGSVQAGGSLRLSCAASRFTYSSYCMGWFRQAPGKEREGVASIDSDGSTSYTDSVKGRFTISKDNAKNTLYLQMNSLKPEDTAMYYCALDLMSTVVPGFCGFLLSAGMDYWGKGTQVTVSSGGGSQVQLQESGGGSVEAGGSLRLSCAASGYTHSSYCMGWFRQAPGKEREGVAAIDVDGSTTYADSVKGRFTISKDNAKNTLYLQMNSLKPEDTGMYYCAAEFADCSSNYFLPPGAVRYWGQGTQVTVSSASHHHHHH
14 | 0.52 | 0.41 | IL10R binding molecule of SEQ ID NO: 273 (bispecific antibody) QVQLQESGGGSVQAGGSLRLSCAASGYTYSMYCMGWFRQAPGKEREGVAQINSDGSTSYADSVKGRFTISKDNAKNTLYLQMNSLKPEDTAMYYCAADSRVYGGSWYERLCGPYTYEYNYWGQGTQVTVSSGGGSQVQLQESGGGSVQAGGSLRLSCTVSRYTASVNYMGWFRQAPGKEREGVATIFTGAGTTYYANSVKGRFTISRDNAKNTAYLQMNSLKPEDTAIYYCAVDFRGGLLYRPAYEYTYRGQGTQVTVSSASHHHHHH
15 | 0.43 | 0.35 | IL10R binding molecule of SEQ ID NO: 350 (bispecific antibody) QVQLQESGGGSVQTGGSLRLSCAASGYTYLRGCMGWFRQAPGKEREGVAVMDVVGDRRSYIDSVKGRFTISRDNAANSVYLQMDNLKPEDTAMYYCTAGPNCVGWRSGLDYWGQGTQVTVSSGGGSQVQLQESGGGSVQAGGSLRLSCAVSGYAYSTYCMGWFRQAPGKEREGVAAIDSGGSTSYADSVKGRFTISKDNAKNTLYLRMNSLKPEDTAMYYCAAVPPPPDGGSCLFLGPEIKVSKADFRYWGQGTQVTVSSASHHHHHH
16 | 0.54 | 0.65 | IL10R binding molecule of SEQ ID NO: 352 (bispecific antibody) QVQLQESGGGSVQTGGSLRLSCAASGYTYLRGCMGWFRQAPGKEREGVAVMDVVGDRRSYIDSVKGRFTISRDNAANSVYLQMDNLKPEDTAMYYCTAGPNCVGWRSGLDYWGQGTQVTVSSGGGSQVQLQESGGGSVQAGGSLRLSCGASGYTYSSYCMGWFRQVPGKEREGVAVIDSDGSTSYADSVKGRFTISKDNGKNTLYLQMNSLKPEDTAMYYCAADLGHYRPPCGVLYLGMDYWGKGTQVTVSSASHHHHHH
